Results from patent US11653679B2, “High-purity steviol glycosides” (PureCircle Sdn Bhd, priority 2014, dated 2023).

How the values were obtained:
Format in all cases: biochemical
[1] = Transformation of Rebaudioside D to Rebaudioside M with UGT76G1 (Examples 6, 13), HPLC; details: after 120 h, in-vitro produced UGT76G1, 0.5 mM Rebaudioside D, 30° C.
Description: The total volume of the reaction was 2 mL with the following composition: 50 mM sodium phosphate buffer pH 7.2, 3 mM MgCl2, 3.8 mM UDP-glucose, 0.5 mM Rebaudioside D and 180 μL of in-vitro produced UGT76G1. The reactions were run at 30° C. on an orbitary shaker at 135 rpm. For each sample, 400 μL of reaction mixture was quenched with 40 μL of 2N H2SO4 and 360 μL of 60% MeOH. After centrifugation, the supernatant was analyzed by HPLC (CAD).
(§1) Activity tests were performed on a 5 mL scale with 500 μL of thawed lysate for the transformation of Stevioside to Rebaudioside A and Rebaudioside D to Rebaudioside M using 0.5 mM of substrate, 2.5 mM of UDP-Glucose and 3 mM MgCl2 in 50 mM Sodium Phosphate buffer at pH 7.2. Samples were taken and analyzed by HPLC.

[2] = Transformation of Stevioside to Rebaudioside A with UGT76G1 lysate (Examples 4, 13), HPLC; details: in-vivo produced UGT76G1 thawed lysate, 0.5 mM Stevioside, 30° C., HPLC (CAD)
Description: The total volume of the reaction was 5.0 mL with the following composition: 50 mM sodium phosphate buffer pH 7.2, 3 mM MgCl2, 2.5 mM UDP-glucose, 0.5 mM Stevioside and 500 μl, of UGT76G1 thawed lysate. The reactions were run at 30° C. on an orbitary shaker at 135 rpm. For each sample, 460 μL of the reaction mixture was quenched with 40 μL of 2N H2SO4 and 420 μL of methanol/water (6/4). The samples were immediately centrifuged and kept at 10° C. before analysis by HPLC (CAD).
as §1

[3] = Conversion of Rebaudioside E to Rebaudioside D with UGT76G1 lysate (Example 25); details: UGT76G1 thawed lysate, 0.5 mM Rebaudioside E, pH 7.5, 30° C.
Description: The total volume of the reaction was 5.0 mL with the following composition: 100 mM potassium phosphate buffer pH 7.5, 3 mM MgCl2, 2.5 mM UDP-glucose, 0.5 mM Rebaudioside E and 500 μL of UGT76G1 thawed lysate (UGT76G1 gene was cloned in pET30a+ vector and expressed in E. coli BL21 (DE3)). The reactions were run at 30° C. on an orbitary shaker at 135 rpm. For sampling 300 μL of the reaction mixture was quenched with 30 μL of 2N H2SO4 and 270 μL of methanol/water (6/4). The samples were immediately centrifuged and kept at 10° C. before analysis by HPLC (CAD detection).

[4] = Directed evolution of UGTSL2 round 3, initial rate for Rebaudioside D conversion (Example 53); details: UGTSL2 round 3 clones; specificity
Description: In parallel 100 μL of fresh lysate was added to a solution of Rebaudioside D (final concentration 0.5 mM), MgCl2 (final concentration 3 mM) and UDP-Glucose (final concentration 2.5 mM) in 50 mM phosphate buffer pH 7.2. The reaction was allowed to run at 30° C. and samples were taken after 2, 4, 6 and 22 h. to determine the initial rates for Rebaudioside D conversion after HPLC analysis (CAD detection).
(§2) Apart from the new variants for this round, both experiments were also performed with baseline clone, UGTSL2. The initial rates for the conversion of Rebaudioside A or Rebaudioside D for this baseline clone were defined as 100%.
(§3) Activity of each clone was defined as normalized activity compared to baseline clone UGTSL2 whereas specificity of each clone was expressed as the ratio between the initial rates for the conversion of Rebaudioside A and Rebaudioside D.

[5] = Directed evolution of UGTSL2 round 3, initial rate for Rebaudioside A conversion (Example 53); details: UGTSL2 round 3 clone lysates, 0.5 mM Rebaudioside A, 30° C., pH 7.2; baseline clone UGTSL2 defined as 100%
Description: (§4) In order to measure the activity of the variants for the transformation of Rebaudioside A to Rebaudioside D, 100 μL of fresh lysate was added to a solution of Rebaudioside A (final concentration 0.5 mM), MgCl2 (final concentration 3 mM) and UDP-Glucose (final concentration 2.5 mM) in 50 mM phosphate buffer pH 7.2. The reaction was allowed to run at 30° C. and samples were taken after 2, 4, 6 and 22 h. to determine the initial rates after HPLC analysis (CAD detection) using the analytical method that was described above for the transformation of Rebaudioside A to Rebaudioside D.
as §2, §3

[6] = Directed evolution of UGTSL2 round 2, initial rate for Rebaudioside A conversion (Example 48); details: UGTSL2 round 2 clone lysates, 0.5 mM Rebaudioside A, 30° C., pH 7.2; baseline clone UGTSL2 defined as 100%
Description: as §4
(§5) Apart from the new variants, both experiments were also performed with baseline clone, UGTSL2. The initial rates for the conversion of Rebaudioside A or Rebaudioside D for this baseline clone were defined as 100%.
as §3

[7] = Activity for Stevioside to Rebaudioside E conversion with UGTSL, UGTSL2, UGTLB (Examples 28, 32); details: reaction time UGTSL 22 h., UGTSL2 2 h., 600 μL lysate, based on initial concentration of Stevioside
Description: (§6) Activity tests were performed at 3 mL scale with 600 μL of lysate for the transformation of Stevioside using 0.5 mM of substrate, 2.5 mM of UDP-Glucose and 3 mM MgCl2 in 50 mM Sodium Phosphate buffer at pH 7.2. Samples were taken and analyzed by HPLC. HPLC Analysis. The HPLC assay was performed as described in EXAMPLE 20.
as §6, with “HPLC.” for “HPLC. HPLC Analysis.”, “corresponding chromatograms are depicted” for “HPLC assay was performed as described”, “FIG. 63a.” for “EXAMPLE 20.”

[8] = Rubusoside conversion products with UGTSL, UGTSL2, UGTLB by LCMS (Example 33); details: reaction time UGTSL2 2 hrs, UGTLB 5 hrs, UGTSL 45 hrs
Description: (§7) Conversion of stevioside with UGTSL and UGTSL2 was conducted in similar manner to Example 28, and the conversion of rubusoside with UGTSL and UGTSL2 was conducted similarly to Example 29. Conversions of rubusoside and stevioside with UGTLB was conducted similarly to Example 32.
(§8) The reaction mixtures were analyzed by LCMS to determine all reaction products.

[9] = Activity for Rubusoside to Rebaudioside E conversion with UGTSL, UGTSL2, UGTLB (Examples 29, 32); details: reaction time UGTSL 45 h., UGTSL2 2 h., 600 μL lysate, based on initial concentration of Rubusoside
Description: as §6, with “Rubusoside” for “Stevioside”, “HPLC.” for “HPLC. HPLC Analysis.”
(§9) Activity tests were performed at 3 mL scale with 600 μL of lysate for the transformation of Rubusoside using 0.5 mM of substrate, 2.5 mM of UDP-Glucose and 3 mM MgCl2 in 50 mM Sodium Phosphate buffer at pH 7.2. Samples were taken and analyzed by HPLC. The corresponding chromatograms are depicted in FIG. 63b.

[10] = Activity for Rebaudioside A to Rebaudioside D conversion with UGTSL2, UGTLB (Examples 30, 32); details: 23 h., 60 μL lysate, based on initial concentration of Rebaudioside A
Description: as §6, with “60” for “600”, “Rebaudioside A” for “Stevioside”, “HPLC.” for “HPLC. HPLC Analysis.”
as §9, with “Rebaudioside A” for “Rubusoside”, “chromatogram after 23 h. of reaction is” for “chromatograms are”, “63c.” for “63b.”

[11] = Directed evolution of UGTSL2, Rebaudioside A to Rebaudioside D, round 1 (Example 45)
Description: Lysis was performed by addition of Bugbuster® Master mix (Novagen®) to the thawed cells and the lysate was recovered by centrifugation. […]
The reaction was allowed to run at 30° C. and samples were taken after 2, 4, 6 and 22 h. to determine the initial rate by HPLC (CAD detection) using the analytical method that was described above for the transformation of Rebaudioside A to Rebaudioside D. In parallel the experiments were performed with baseline clone, UGTSL2. The initial rate for this baseline clone was defined as 100%. As an indication of the specificity of the clones, Rebaudioside M2 content was determined at 100% UDP-Glucose conversion and Rebaudioside D2 content was determined at 50% UDP-Glucose conversion. Wherein UDP glucose conversion is defined as: ([Reb D]/[Reb A]0)+([Reb D2]/[Reb A]0)+2*([Reb M2]/[Reb A]0).
The normalized initial rate, Rebaudioside M2 content at 100% UDP-glucose conversion and Rebaudioside D2 content at 50% UDP-glucose conversion are depicted in the following table

[12] = Directed evolution of UGTSL2 round 2, initial rate for Rebaudioside D conversion (Example 48); details: UGTSL2 round 2 clones; specificity
Description: The reaction was allowed to run at 30° C. and samples were taken after 2, 4, 6 and 22 h. to determine the initial rates for Rebaudioside D conversion after HPLC analysis (CAD detection).
as §5, §3

[13] = Stevioside conversion products with UGTSL, UGTSL2, UGTLB by LCMS (Example 33); details: reaction time UGTSL2 2 hrs, UGTLB 2 hrs, UGTSL 22 hrs
Description: as §7, §8

[14] = 0.5 mM substrate, 2.5 mM UDP-Glucose, pH 7.2
[15] = UGTSL2 round 1 clones, indication of specificity

B1: UGT76G1: UDP-glucosyltransferase UGT76G1 [Stevia rebaudiana], Genbank AAR06912.1, SEQ ID NO:11 (protein, listed as Stevia rebaudiana)
chain: MENKTETTVRRRRRIILFPVPFQGHINPILQLANVLYSKGFSITIFHTNFNKPKTSNYPHFTFRFILDNDPQDERISNLPTHGPLAGMRIPIINEHGADELRRELELLMLASEEDEEVSCLITDALWYFAQSVADSLNLRRLVLMTSSLFNFHAHVSLPQFDELGYLDPDDKTRLEEQASGFPMLKVKDIKSAYSNWQILKEILGKMIKQTKASSGVIWNSFKELEESELETVIREIPAPSFLIPLPKHLTASSSSLLDHDRTVFQWLDQQPPSSVLYVSFGSTSEVDEKDFLEIARGLVDSKQSFLWVVRPGFVKGSTWVEPLPDGFLGERGRIVKWVPQQEVLAHGAIGAFWTHSGWNSTLESVCEGVPMIFSDFGLDQPLNARYMSDVLKVGVYLENGWERGEIANAIRRVMVDEEGEYIRQNARVLKQKADVSLMKGGSSYESLESLVSYISSL
[1]
  conversion of rebaudioside D to rebaudioside M: 80%
[2]
  conversion of stevioside to rebaudioside A: almost complete conversion
[3]
  conversion of Rebaudioside E to Rebaudioside D: complete conversion

B2: UGTSL2: UDP-glucosyltransferase, Solanum lycopersicum, SEQ ID NO:9 (protein, listed as Solanum lycopersicum)
chain: MATNLRVLMFPWLAYGHISPFLNIAKQLADRGFLIYLCSTRINLESIIKKIPEKYADSIHLIELQLPELPELPPHYHTTNGLPPHLNPTLHKALKMSKPNFSRILQNLKPDLLIYDVLQPWAEHVANEQNIPAGKLLTSCAAVFSYFFSFRKNPGVEFPFPAIHLPEVEKVKIREILAKEPEEGGRLDEGNKQMMLMCTSRTIEAKYIDYCTELCNWKVVPVGPPFQDLITNDADNKELIDWLGTKHENSTVFVSFGSEYFLSKEDMEEVAFALELSNVNFIWVARFPKGEERNLEDALPKGFLERIGERGRVLDKFAPQPRILNHPSTGGFISHCGWNSAMESIDFGVPIIAMPIHNDQPINAKLMVELGVAVEIVRDDDGKIHRGEIAETLKSVVTGETGEILRAKVREISKNLKSIRDEEMDAVAEELIQLCRNSNKSK
[4]
  Ratio between initial rates for the conversion of Rebaudioside A and Rebaudioside D: 1.67
[5]
  Normalized initial rate for conversion of Rebaudioside A: 100%
[6]
  Normalized initial rate for conversion of Rebaudioside A: 100%
[7]; 0.5 mM Stevioside
  Rebaudioside E formation: 50%
[7]; [14]
  Stevioside conv. (reaction time): 77% (2 h.)
[8]
  LC-MS, peak area ratio (%): REb E: 52.88%
  LC-MS, peak area ratio (%): Reb D: 6.73%
  LC-MS, peak area ratio (%): Rub: 3.54%
  LC-MS, peak area ratio (%): Stev: 2.12%
  LC-MS, peak area ratio (%): Unknown peak #1 (MW804) RT 30.70 min: 12.02%
  LC-MS, peak area ratio (%): Unknown peak #2 (MW804) RT 49.50 min: 9.94%
  LC-MS, peak area ratio (%): Unknown peak #3 (MW804) RT 50.40 min: 12.77%
[9]; 0.5 mM Rubusoside
  Rebaudioside E formation: 55%
[9]; [14]
  Rubusoside conv. (reaction time): 80% (2 h.)
[10]; 0.5 mM Rebaudioside A
  Rebaudioside D formation: 75%
[10]; [14]
  Rebaudioside A conv. (reaction time): 78% (23 h.)
[11]; UGTSL2 round 1 clone lysates, 30° C., pH 7.2, HPLC (CAD), baseline clone UGTSL2 defined as 100%
  Normalized initial rate (0-4 h): 100%
[11]; [15]
  Reb D2 content at 50% UDP-Glc conversion: 12.5%
  Reb M2 content at 100% UDP-Glc conversion: 100%
[12]
  Ratio between initial rates for the conversion of Rebaudioside A and Rebaudioside D: 1.67
[13]
  LC-MS, peak area ratio (%): Reb D: 1.70%
  LC-MS, peak area ratio (%): Reb E: 42.56%
  LC-MS, peak area ratio (%): Stev: 20.01%
  LC-MS, peak area ratio (%): Unknown peak #1 (MW966) RT = 22.60 min: 4.48%
  LC-MS, peak area ratio (%): Unknown peak #2 (MW966) RT = 26.50 min: 5.56%
  LC-MS, peak area ratio (%): Unknown peak #3 (MW966) RT = 29.50 min: 25.70%
